# Experimental data as given in patent publication US20080166370A1, “Immunogenic Compositions Comprising Multiple Gonococcal Antigens” (CHIRON SRL, priority 2003, published 2008).
# T1: C4b binding protein (C4bp) (Homo sapiens, UniProt P04003)
# T1 sequence (P04003 49-597): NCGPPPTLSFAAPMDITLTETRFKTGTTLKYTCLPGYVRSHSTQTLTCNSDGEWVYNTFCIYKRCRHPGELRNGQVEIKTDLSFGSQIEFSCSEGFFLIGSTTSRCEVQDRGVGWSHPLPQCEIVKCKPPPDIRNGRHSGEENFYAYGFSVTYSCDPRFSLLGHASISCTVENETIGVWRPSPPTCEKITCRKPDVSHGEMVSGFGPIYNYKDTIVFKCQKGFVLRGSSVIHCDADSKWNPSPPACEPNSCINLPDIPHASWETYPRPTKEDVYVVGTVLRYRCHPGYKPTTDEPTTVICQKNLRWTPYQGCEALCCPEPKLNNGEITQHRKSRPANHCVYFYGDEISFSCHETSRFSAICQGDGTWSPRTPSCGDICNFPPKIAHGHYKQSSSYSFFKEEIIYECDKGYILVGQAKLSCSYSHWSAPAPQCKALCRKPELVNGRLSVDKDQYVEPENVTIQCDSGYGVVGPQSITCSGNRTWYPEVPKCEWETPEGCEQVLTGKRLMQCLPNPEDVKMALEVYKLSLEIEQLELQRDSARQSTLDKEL
# T2: C4b binding protein (C4bp) (Homo sapiens, UniProt P04003)
# T2 construct: incubated with 10% NHS as source of C4bp; from tissue; host or cells: 10% NHS (serum)
# T2 sequence (P04003 49-597): T1 sequence (P04003 49-597)
# T2 sequence (P20851 18-252 partner): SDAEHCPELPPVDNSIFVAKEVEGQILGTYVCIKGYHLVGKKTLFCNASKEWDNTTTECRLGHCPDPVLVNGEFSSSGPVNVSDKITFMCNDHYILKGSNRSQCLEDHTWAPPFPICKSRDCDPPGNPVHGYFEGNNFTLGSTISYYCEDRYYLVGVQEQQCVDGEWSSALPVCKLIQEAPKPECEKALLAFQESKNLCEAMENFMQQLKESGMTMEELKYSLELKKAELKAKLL
# B1: OmpA: gonococcal OmpA protein, SEQ ID 2; expressed in E. coli with C-terminal His-tag and purified (protein, listed as Neisseria gonorrhoeae)
# chain: MTFFKPSTVVLTASALALSGCVADPVTGQQSPNKSAMYGLGGAAVCGIVGALTHSGKGARNSALACGAIGAGVGGYMDYQEQRLRQNLAGTQIEIQRQGNQIRLVMPESVTFATGSAALGGSAQYALNTAAQTLVQYPDTTLTINGHTDNTGSDAVNNPLSQHRAQAVAYYLQTRGVAASRLTVYGYGSHMPVASNATVEGRAQNRRVEILINPDQRAVNAARHM
# modifications: C-terminal His-tag
# notes: expressed in E. coli with C-terminal His-tag and purified
# B2: App: gonococcal App autotransporter protein, SEQ ID 7, related to meningococcal adhesion penetration protein (protein, listed as Neisseria gonorrhoeae)
# chain: MKTTDKRTTETHRKAPKTGRIRFSPAYLAICLSFGILPQARAGHTYFGINYQYYRDFAENKGKFAVGAKDIEVYNKKGELVGKSMTKAPMIDFSVVSRNGVAALAGDQYIVSVAHNGGYNNVDFGAEGSNPDQHRFSYQIVKRNNYKAGTNGHPYGGDYHMPRLHKFVTDAEPVEMTSYMDGWKYADLNKYPDRVRIGAGRQYWRSDEDEPNNRESSYHIASAYSWLVGGNTFAQNGSGGGTVNLGSEKIKHSPYGFLPTGGSFGDSGSPMFIYDAQKQKWLINGVLQTGNPYIGKSNGFQLVRKDWFYDEIFAGDTHSVFYEPHQNGKYFFNDNNNGAGKIDAKHKHYSLPYRLKTRTVQLFNVSLSETAREPVYHAAGGVNSYRPRLNNGENISFIDKGKGELILTSNINQGAGGLYFEGNFTVSPKNNETWQGAGVHISDGSTVTWKVNGVANDRLSKIGKGTLLVQAKGENQGSVSVGDGKVILDQQADDQGKKQAFSEIGLVSGRGTVQLNADNQFNPDKLYFGFRGGRLDLNGHSLSFHRIQNTDEGAMIVNHNQDKESTVTITGNKDITTTGNNNNLDSKKEIAYNGWFGEKDATKTNGGLNLNYPPEEADRTLLLSGGTNLNGNITQTNGKLFFSGRPTPHAYNHLGSGWSKMEGIPQGEIVWDNDWIDRTFKAENFHIQGGQAVVSRNVAKVEGDWHLSNHAQAVFGVAPHQSHTICTRSDWTGLTSCTEKTITDDKVIASLSKTDVRGNVSLADHAHLNLTGLATFNGNLVQAETRTIRLRANATQNGNLSLVGNAQATFNQATLNGNTSASDNASFNLSNNAVQNGSLTLSDNAKANVSHSALNGNVSLADKAVFHFENSRFTGKISGGKDTALHLKDSEWTLPSGTELGNLNLDNATITLNSAYRHDAAGAQTGSAADAPRRRSRRSLLSVTPPTSAESRFNTLTVNGKLNGQGTFRFMSELFGYRSGKLKLAESSEGTYTLAVNNTGNEPVSLEQLTVVEGKDNTPLSENLNFTLQNEHVDAGAWRYQLIRKDGEFRLHNPVKEQELSDKLGKAGETEAALTAKQAQLAAKQQAEKDNAQSLDALIAAGRNATEKAESVAEPARQAGGENAGIMQAEEEKKRVQADKDTALAKQREAETRPATTAFPRARRARRDLPQPQPQPQPQPQRDLISRYANSGLSEFSATLNSVFAVQDELDRVFAEDRRNAVWTSGIRDTKHYRSQDFRAYRQQTDLRQIGMQKNLGSGRVGILFSHNRTGNTFDDGIGNSARLAHGAVFGQYGIGRFDIGISAGAGFSSGSLSDGIRGKIRRRVLHYGIQARYRAGFGGFGIEPHIGATRYFVQKADYRYENVNIATPGLAFNRYRAGIKADYSFKPAQHISITPYLSLSYTDAASGKVRTRVNTAVLAQDFGKTRSAEWGVNAEIKGFTLSLHAAAAKGPQLEAQHSAGIKLGYRW
# Tests used:
# [1] = test system: ME-180 human cervical epithelial cells; experiment: Immunofluorescence microscopy of purified OmpA binding to epithelial cells; type: cell-based; conditions: 1 mg/ml purified OmpA vs PBS control (FIG. 19)
# Experimental: Monolayers of the ME-180 cells were treated with PBS (control) or with 1 mg/ml purified OmpA, labeled using polyclonal mouse antiserum against recombinant Ng OmpA-His, followed by anti-mouse Alexa Fluor 488 conjugated antibodies. The results are in FIG. 19.
# [2] = target: T1, C4b binding protein (C4bp); experiment: Dot blot ligand overlay analysis of C4bp binding; conditions: C4bp 10 mg/ml; OmpA from 0.1 mg to 4 mg (FIG. 23)
# [3] = target: T2, C4b binding protein (C4bp); experiment: ELISA for the interaction of C4bp with immobilized OmpA; conditions: OmpA immobilized from 0.15 mg to 20 mg; 10% NHS as source of C4bp (FIG. 24)
# Experimental: It is known that some antigens contribute to serum resistance by binding to complement regulatory protein C4b binding protein (C4bp), leading to a decrease in serum killing by complement attack. […] In further experiments, purified OmpA and three negative control proteins were immobilized in the wells of a microtiter plate at different concentrations (from 0.15 mg to 20 mg). The wells were blocked with 5% skimmed milk in PBS and then incubated with 10% NHS as source of C4bp.
# [4] = test system: complement cascade; experiment: C3 binding assay; conditions: FIG. 10
Molecule,binding to ME-180 cells [1],C4bp binding (dot blot) [2],bound C4bp (ELISA) [3],elicitation of complement-activating antibodies [4]
B1,binds,binding,bound C4bp was detected,
B2,,,,able to elicit antibodies which activate the complement cascade
